From patent US20180291335A1, “MODIFIED POLYNUCLEOTIDES FOR ALTERING CELL PHENOTYPE” (ModernaTX, Inc., priority 2012, published 2018)

How the values were obtained:
Type in all cases: cell-based, human
[1] = test system: peripheral blood mononuclear cells (PBMC); assay: In vitro PBMC study, percent modification: G-CSF expression by ELISA; details: for G-CSF Expression: 22 hours after transfection; for Average G-CSF: PBMC, average of three donors
Description: 480 ng of G-CSF mRNA modified with 5-methylcytosine (5mC) and pseudouridine (pseudoU) or unmodified G-CSF mRNA was transfected with 0.4 uL of Lipofectamine 2000 into peripheral blood mononuclear cells (PBMC) from three normal blood donors (D1, D2, and D3). […] The supernatant was harvested and run by ELISA 22 hours after transfection to determine the protein expression. The expression of IFN-alpha and TNF-alpha may be a secondary effect from the transfection of the G-CSF mRNA.

TNF-alpha = assay: In vitro PBMC study, percent modification: TNF-alpha expression by ELISA; details: for Average TNF-a: average of three donors; for G-CSF/TNF-alpha (PC ratio): protein/cytokine ratio from averages
Description: (§1) The supernatant was harvested and run by ELISA 22 hours after transfection to determine the protein expression.

IFN-alpha = assay: In vitro PBMC study, percent modification: IFN-alpha expression by ELISA; details: for Average IFN-a: average of three donors; for G-CSF/IFN-alpha (PC ratio): protein/cytokine ratio from averages
Description: as §1

[2] = PBMC donor D1, 22 hours after transfection
[3] = PBMC donor D2, 22 hours after transfection
[4] = PBMC donor D3, 22 hours after transfection
[5] = PBMC, versus natural G-CSF mRNA

Molecule	G-CSF Expression ([1]; PBMC donor D1, 480 ng mRNA) [pg/mL]	G-CSF Expression ([1]; PBMC donor D2, 480 ng mRNA) [pg/mL]	G-CSF Expression ([1]; PBMC donor D3, 480 ng mRNA) [pg/mL]	TNF-alpha Expression (TNF-alpha; [2]) [pg/mL]	TNF-alpha Expression (TNF-alpha; [3]) [pg/mL]	TNF-alpha Expression (TNF-alpha; [4]) [pg/mL]	Average TNF-a (TNF-alpha; PBMC) [pg/mL]	G-CSF/TNF-alpha (PC ratio) (TNF-alpha; PBMC)	better ratio of protein/cytokine production than without any modification, TNF-alpha (TNF-alpha; [5]) [fold]	Average G-CSF [1] [pg/mL]	IFN-alpha Expression (IFN-alpha; [2]) [pg/mL]	IFN-alpha Expression (IFN-alpha; [3]) [pg/mL]	IFN-alpha Expression (IFN-alpha; [4]) [pg/mL]	Average IFN-a (IFN-alpha; PBMC) [pg/mL]	G-CSF/IFN-alpha (PC ratio) (IFN-alpha; PBMC)	better ratio of protein/cytokine production than without any modification, IFN-alpha (IFN-alpha; [5]) [fold]
Luciferase: control Luciferase mRNA (SEQ ID NO: 409, Cap1) fully modified 5meC and pseudoU [reference compound]	90.2	0.0	22.1	–	–	–	–	–	–	–	–	–	–	–	–	–
100% modification: G-CSF mRNA (SEQ ID NO: 408, Cap1) completely modified with 5mC and pseudoU (nucleic acid, Cap1; full 5mC and pseudoU modification; Description of Artificial Sequence: Synthetic Transcript Sequence) GGGAAAUAAGAGAGAAAAGAAGAGUAAGAAGAAAUAUAAGAGCCACCAUGGCCGGUCCCGCGACCCAAAGCCCCAUGAAACUUAUGGCCCUGCAGUUGCUGCUUUGGCACUCGGCCCUCUGGACAGUCCAAGAAGCGACUCCUCUCGGACCUGCCUCAUCGUUGCCGCAGUCAUUCCUUUUGAAGUGUCUGGAGCAGGUGCGAAAGAUUCAGGGCGAUGGAGCCGCACUCCAAGAGAAGCUCUGCGCGACAUACAAACUUUGCCAUCCCGAGGAGCUCGUACUGCUCGGGCACAGCUUGGGGAUUCCCUGGGCUCCUCUCUCGUCCUGUCCGUCGCAGGCUUUGCAGUUGGCAGGGUGCCUUUCCCAGCUCCACUCCGGUUUGUUCUUGUAUCAGGGACUGCUGCAAGCCCUUGAGGGAAUCUCGCCAGAAUUGGGCCCGACGCUGGACACGUUGCAGCUCGACGUGGCGGAUUUCGCAACAACCAUCUGGCAGCAGAUGGAGGAACUGGGGAUGGCACCCGCGCUGCAGCCCACGCAGGGGGCAAUGCCGGCCUUUGCGUCCGCGUUUCAGCGCAGGGCGGGUGGAGUCCUCGUAGCGAGCCACCUUCAAUCAUUUUUGGAAGUCUCGUACCGGGUGCUGAGACAUCUUGCGCAGCCGUGAAGCGCUGCCUUCUGCGGGGCUUGCCUUCUGGCCAUGCCCUUCUUCUCUCCCUUGCACCUGUACCUCUUGGUCUUUGAAUAAAGCCUGAGUAGGAAG	1968.9	2595.6	2835.7	115.0	15.0	11.1	47	52	27	2466	336.5	78.0	46.4	153	16	100
0% modification: unmodified G-CSF mRNA (SEQ ID NO: 408), not modified with 5mC and pseudoU (nucleic acid, Description of Artificial Sequence: Synthetic Transcript Sequence) GGGAAAUAAGAGAGAAAAGAAGAGUAAGAAGAAAUAUAAGAGCCACCAUGGCCGGUCCCGCGACCCAAAGCCCCAUGAAACUUAUGGCCCUGCAGUUGCUGCUUUGGCACUCGGCCCUCUGGACAGUCCAAGAAGCGACUCCUCUCGGACCUGCCUCAUCGUUGCCGCAGUCAUUCCUUUUGAAGUGUCUGGAGCAGGUGCGAAAGAUUCAGGGCGAUGGAGCCGCACUCCAAGAGAAGCUCUGCGCGACAUACAAACUUUGCCAUCCCGAGGAGCUCGUACUGCUCGGGCACAGCUUGGGGAUUCCCUGGGCUCCUCUCUCGUCCUGUCCGUCGCAGGCUUUGCAGUUGGCAGGGUGCCUUUCCCAGCUCCACUCCGGUUUGUUCUUGUAUCAGGGACUGCUGCAAGCCCUUGAGGGAAUCUCGCCAGAAUUGGGCCCGACGCUGGACACGUUGCAGCUCGACGUGGCGGAUUUCGCAACAACCAUCUGGCAGCAGAUGGAGGAACUGGGGAUGGCACCCGCGCUGCAGCCCACGCAGGGGGCAAUGCCGGCCUUUGCGUCCGCGUUUCAGCGCAGGGCGGGUGGAGUCCUCGUAGCGAGCCACCUUCAAUCAUUUUUGGAAGUCUCGUACCGGGUGCUGAGACAUCUUGCGCAGCCGUGAAGCGCUGCCUUCUGCGGGGCUUGCCUUCUGGCCAUGCCCUUCUUCUCUCCCUUGCACCUGUACCUCUUGGUCUUUGAAUAAAGCCUGAGUAGGAAG	194.8	182.0	183.3	154.6	96.8	45.9	99	1.9	–	186	1421.6	810.5	1260.5	1164	0.16	–
75% modification: G-CSF mRNA (SEQ ID NO: 408) partially modified with 5mC and pseudoU, 75% modification (nucleic acid, 75% 5mC/pseudoU modified; Description of Artificial Sequence: Synthetic Transcript Sequence) GGGAAAUAAGAGAGAAAAGAAGAGUAAGAAGAAAUAUAAGAGCCACCAUGGCCGGUCCCGCGACCCAAAGCCCCAUGAAACUUAUGGCCCUGCAGUUGCUGCUUUGGCACUCGGCCCUCUGGACAGUCCAAGAAGCGACUCCUCUCGGACCUGCCUCAUCGUUGCCGCAGUCAUUCCUUUUGAAGUGUCUGGAGCAGGUGCGAAAGAUUCAGGGCGAUGGAGCCGCACUCCAAGAGAAGCUCUGCGCGACAUACAAACUUUGCCAUCCCGAGGAGCUCGUACUGCUCGGGCACAGCUUGGGGAUUCCCUGGGCUCCUCUCUCGUCCUGUCCGUCGCAGGCUUUGCAGUUGGCAGGGUGCCUUUCCCAGCUCCACUCCGGUUUGUUCUUGUAUCAGGGACUGCUGCAAGCCCUUGAGGGAAUCUCGCCAGAAUUGGGCCCGACGCUGGACACGUUGCAGCUCGACGUGGCGGAUUUCGCAACAACCAUCUGGCAGCAGAUGGAGGAACUGGGGAUGGCACCCGCGCUGCAGCCCACGCAGGGGGCAAUGCCGGCCUUUGCGUCCGCGUUUCAGCGCAGGGCGGGUGGAGUCCUCGUAGCGAGCCACCUUCAAUCAUUUUUGGAAGUCUCGUACCGGGUGCUGAGACAUCUUGCGCAGCCGUGAAGCGCUGCCUUCUGCGGGGCUUGCCUUCUGGCCAUGCCCUUCUUCUCUCCCUUGCACCUGUACCUCUUGGUCUUUGAAUAAAGCCUGAGUAGGAAG	566.7	631.4	659.5	107.4	21.7	11.8	47	13	–	619	339.6	107.6	160.9	202	3.1	–
